The values that follow come from paper PMC11168103.

The data set has as its target PHOX2B-20A (UniProt Q99453 98-314). As to the kind of experiment: NMR.

PHOX2B-20A, sequence (Q99453 98-314): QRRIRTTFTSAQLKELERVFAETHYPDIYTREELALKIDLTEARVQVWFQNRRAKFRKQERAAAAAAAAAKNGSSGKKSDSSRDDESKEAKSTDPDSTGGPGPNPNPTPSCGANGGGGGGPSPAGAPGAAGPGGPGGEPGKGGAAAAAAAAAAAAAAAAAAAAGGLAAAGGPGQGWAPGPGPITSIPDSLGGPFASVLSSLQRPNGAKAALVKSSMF

B1: ATTA2 (dsDNA)
DNA 1: TAGTGTGATTGAATTAAAGGGCAGG
DNA 2: CCTGCCCTTTAATTCAATCACACTA
In the case of B1, the binding result is given as “binds”.
